Laboratory results taken from patent US20090304686A1, “INTERFERING IN ACTIVATION OF AN IMMUNE CELL BY INFLUENCING INTERACTION OF LAIR AND COLLAGEN” (UNIVERSOTAIR MEDISCH CENTRUM UTRECHT, priority 2006, published 2009).

Tests used:
[1] = biological target: collagen I (purified, Sigma; acid-soluble human collagen type I in BIAcore) (human) (UniProt P02452); assay: SPR (BIAcore), biphasic dissociation from collagen I, component Koff2
[2] = biological target: collagen I (purified, Sigma; acid-soluble human collagen type I in BIAcore) (human) (UniProt P02452); assay: SPR (BIAcore), equilibrium binding to immobilised collagen I
[3] = biological target: collagen I (purified, Sigma; acid-soluble human collagen type I in BIAcore) (human) (UniProt P02452); assay: SPR (BIAcore), biphasic dissociation from collagen I, component Koff1

koff [1]: 0.00187 s⁻¹
Kd [2]: 14.2 nM
koff [3]: 0.000142 s⁻¹
B1: hLAIR-1-IgG (extracellular domain of human LAIR-1 fused to the Fc region of human IgG1) (Fc fusion, UniProt Q6GTX8 22-165, looked up, not shown: a dimerising Fc or GST)
chain: QEEDLPRPSISAEPGTVIPLGSHVTFVCRGPVGVQTFRLERDSRSTYNDTEDVSQASPSESEARFRIDSVREGNAGLYRCIYYKPPKWSEQSDYLELLVKESSGGPDSPDTEPGSSAGPTQRPSDNSHNEHAPASQGLKAEHLY
